# Assay results taken from patent US20230295308A1, “ANTAGONISTIC BIPARATOPIC ANTIBODIES THAT SPECIFICALLY BIND FIBROBLAST GROWTH FACTOR RECEPTOR 2 AND METHODS OF USING SAME” (The Broad Institute, Inc., priority 2020, published 2023).
# Entries after “also recorded” stand apart in the source; their conditions may differ.
# What was measured:
# [1] = test system: FGFR2-fusion transformed BaF3 cells; test: viability assay of BaF3 cells expressing FGFR2 fusions (FIG. 2); assay type: cell-based
# Description: A table showing IC50 (μM) is also provided.
# (§1) NIH3T3 cells transformed with FGFR2-BICC1, FGFR2-AHCYL1, and FGFR2-PHGDH fusions were also sensitive to BGJ398 treatment (FIG. 5).
# [2] = test system: FGFR2 fusion-positive ICC; details: phase II trial; cited from earlier work
# [3] = test system: NIH3T3 cells transformed with FGFR2-BICC1, FGFR2-AHCYL1, and FGFR2-PHGDH fusions; test: growth of NIH3T3 cells transformed with FGFR2 fusions (FIG. 5); assay type: cell-based
# Description: as §1
# [4] = test system: BaF3 cells overexpressing FGFR2-PHGDH fusion; test: BaF3 FGFR2-PHGDH cell survival, CellTiter-Glo (FIGS. 18A-18D); assay type: cell-based; details: no IL3, no FGF, 5 days, 0.013-1 μM
# Description: FIGS. 18A-18D present graphs showing the ability of biparatopic antibodies to impact FGFR2-fusion driven cell growth in BaF3 cells molecularly engineered to overexpress FGFR2-PHGDH fusion. […] These biparatopic antibodies were also more efficient at inhibiting growth of BaF3 cells overexpressing the FGFR2-PHGDH fusion compared to their parental antibodies. The nomenclature of the biparatopic antibodies is based on the designations and descriptions of the parental antibodies presented in FIG. 7B.
# (§2) The impact of biparatopic antibodies on FGFR2-fusion driven cell growth was assessed in a cell-based assay using biparatopic antibodies that bind to the ECD of FGFR2 and generated as described supra (Example 4). As described herein, the biparatopic antibodies were added to cultures of cells (e.g., NIH3T3 cells or BaF3 cells) molecularly engineered to overexpress FGFR2 fusion.
# In particular, for assays using BaF3 cells (FIGS. 18A-18D), BaF3 cells overexpressing empty vector control or FGFR2-PHGDH fusion construct were plated in the absence of IL3 and FGF in 384 black well plates at a concentration of 750 cells/well overnight. […] The cell survival was measured using CellTiter-Glo at 5 days post treatment and the IC50 curves were generated using non-linear fit in PRISM 9 software. […]
# [5] = test system: NIH3T3 cells overexpressing FGFR2-BICC1 fusion; test: NIH3T3 FGFR2-BICC1 cell confluency, Incucyte (FIGS. 19A-19E); assay type: cell-based; details: 60 hours, 0.013-1 μM
# Description: FIGS. 19A-19E present graphs showing the ability of biparatopic antibodies to impact FGFR2-fusion driven cell growth in NIH3T3 cells molecularly engineered to overexpress FGFR2-BICC1 fusion. […] The nomenclature of the biparatopic antibodies is based on the designations and descriptions of the parental antibodies presented in FIG. 7B.
# as §2
# For assays using NIH3T3 cells, (FIGS. 19A-19E), NIH3T3 cells overexpressing a FGFR2-BICC1 fusion construct were plated in 384 black well plates at a concentration of 1000 cells/well overnight. 6 parental antibodies and 13 biparatopic antibodies were added to each well in duplicates at various concentrations ranging from 1 μM to 0.013 μM (1 μM, 0.833 μM, 0.600 μM, 0.450 μM, 0.316 μM, 0.233 μM, 0.166 μM, 0.125 μM, 0.091 μM, 0.066 μM, 0.048 μM, 0.035 μM, 0.025 μM, 0.018 μM, and 0.013 μM). The cell confluency was measured using Incucyte at 60 hours post treatment, and the IC50 curves were generated using non-linear fit in PRISM 9 software.
# [6] = molecular target: FGFR2b alpha IIIb antigen (UniProt P21802); test: SPR (Biacore), KD matrix by the two arms; unit M from FIG. 17B and paragraph 180; FIG. 17B prints 9.1E-10 for the same antibody
# [7] = molecular target: FGFR2b alpha IIIb antigen (UniProt P21802); test: SPR (Biacore), antibody immobilized, FGFR2b alpha IIIb in flow
Kd [6],Binding Stoichiometry [7],Kd [7],Molecule,sensitivity of FGFR2-fusion transformed BaF3 cells (viability) [1],efficacy in patients with FGFR2 fusion-positive ICC [2],sensitivity of NIH3T3 cells transformed with FGFR2 fusions [3],inhibition of growth of BaF3 cells overexpressing FGFR2-PHGDH compared to control cells overexpressing empty vector [4],inhibition of growth of NIH3T3 cells overexpressing FGFR2-BICC1 compared to parental antibodies [5]
,,,CCN1CCN(c2ccc(Nc3cc(N(C)C(=O)Nc4c(Cl)c(OC)cc(OC)c4Cl)ncn3)cc2)CC1 [NVP-BGJ398],sensitive; also recorded: showed sensitivity,encouraging efficacy,sensitive,,
0.82 nM,1.3,0.91 nM,"Biparatopic antibody B/N12 (bispecific antibody, V domains shown) VH 1: EVQLLESGGGLVQPGGSLRLSCAASGFTFSSYAMSWVRQAPGKGLEWVSAISGSGTSTYYADSVKGRFTISRDNSKNTLYLQMNSLRAEDTAVYYCARVRYNWNHGDWFDPWGQGTLVTVSS VL 1: QSVLTQPPSASGTPGQRVTISCSGSSSNIGNNYVSWYQQLPGTAPKLLIYENYNRPAGVPDRFSGSKSGTSASLAISGLRSEDEADYYCSSWDDSLNYWVFGGGTKLTVLG VH 2: QVQLVQSGAEVKKPGESLKISCKGSGYSFTNYYIHWVRQMPGKGLEWMGAIYPDNSDTTYSPSFQGQVTISADKSISTAYLQWSSLKASDTAMYYCARGADIWGQGTLVTVSS VL 2: DIQMTQSPSSLSASVGDRVTITCRASQDIDPYLSNWYQQKPGKAPKLLIYDASNLQSGVPSRFSGSGSGTDFTLTISSLQPEDFATYYCQQTTSHPYTFGQGTKVEIK",,,,more efficient and potent; also recorded: more effective and potent,more efficient and potent; also recorded: more effective and potent
